Here are results for one molecule from patent US20220332804A1 (CSL INNOVATION, published 2022).

What all share (test): SPR, KD relative to WT C2;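 note: biacore SPR at 37 °C, anti-C2 mAbs captured on anti-human IgG chips with alanine or serine point mutants of C2 as analyte, KD from 1:1 fit compared with wild-type C2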
One assay has as its target T1, human C2 N471A (human, UniProt P06681 21-752).
T1 sequence: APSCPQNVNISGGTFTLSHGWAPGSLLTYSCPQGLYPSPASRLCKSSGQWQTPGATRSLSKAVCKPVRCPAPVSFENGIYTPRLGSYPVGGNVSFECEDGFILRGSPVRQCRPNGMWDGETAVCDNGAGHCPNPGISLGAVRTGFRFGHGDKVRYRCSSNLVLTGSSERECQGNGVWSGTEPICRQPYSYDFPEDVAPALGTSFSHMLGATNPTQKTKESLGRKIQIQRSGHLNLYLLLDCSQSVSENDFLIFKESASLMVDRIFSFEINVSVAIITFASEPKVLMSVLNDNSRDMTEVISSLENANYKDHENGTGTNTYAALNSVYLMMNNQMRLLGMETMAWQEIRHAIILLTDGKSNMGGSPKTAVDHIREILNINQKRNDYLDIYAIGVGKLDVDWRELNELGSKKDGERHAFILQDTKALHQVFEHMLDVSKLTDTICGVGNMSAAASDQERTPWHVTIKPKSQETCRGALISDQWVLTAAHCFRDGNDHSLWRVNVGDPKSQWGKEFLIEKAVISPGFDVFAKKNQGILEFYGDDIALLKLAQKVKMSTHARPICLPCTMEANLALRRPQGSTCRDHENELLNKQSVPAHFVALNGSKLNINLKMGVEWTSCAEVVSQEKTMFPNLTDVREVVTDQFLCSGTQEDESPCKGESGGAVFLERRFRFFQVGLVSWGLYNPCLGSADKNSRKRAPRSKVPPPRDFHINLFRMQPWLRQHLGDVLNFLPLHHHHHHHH

Another assay deals with T2, human C2 F437A (human, UniProt P06681 21-752).
T2 sequence: T1 sequence with F417A, A451N

Another assay has as its target T3, human C2 D404A (human, UniProt P06681 21-752).
T3 sequence: T1 sequence with D384A, A451N

A further assay addresses T4, human C2 Q447A (human, UniProt P06681 21-752).
T4 sequence: T1 sequence with Q427A, A451N

Positions count from the first letter of the chain named.

B1: RF16-242 (antibody, human IgG4 S228P, lambda, V domains shown)
VH: EVQLLQSGAEVKKPGESLKISCKGSGYSFTSYWIGWVRQMPGKGLEWMGIIYPGDSDTRYSPSFQGQVTISADKSISTAYLQWSSLKASDTAMYYCARRGHYGDYFDYWGQGTLVTVSS
VL: SYELTQPPSVSVSPGQTARITCSGDALPKKYAYWYHQKSGQAPVLVIYEDRRRPSEIPERFSGSSSGTMATLTITGAQVEDEGVYFCYSRDRAGNQRVFGGGTQLTVLG
notes: pH-dependent anti-C2 antibody from a phage display library
In the case of B1, the Fold diff with human C2 N471A worked out at 1 fold; in the assay with human C2 F437A, 15 fold; with human C2 D404A it was 2 fold; with human C2 Q447A it was 4 fold.
